A protein production outcome set (Wang et al. 2014)

Assay: label from the status in PepcDB records
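Note: failed if final PepcDB status was selected cloned or expressed and not failed if soluble or beyond.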

For “MATLSFGIAAAATTVRTIPRFNSRRSKITCEWDPKGVLGPAQTGHIARLEFKRRLERDSEAREAFQKQLREEKERRQALRQSRVVPDTAAELIEYFLDTEAQEIEYEIARLRGRLNDEFFAQIRLEIGQIRFAVTKTADIEDRLIELETLQKALEEGIEAYDKMQNELMTATNSLTKLLTSTDIKTTLLDMVEKNQINRSLLALLDENIANAYKGNQKEAGDYMEKIRSSVLKYLTV”, the protein production was “failed”.

For “MRLAVLADIHGNADALEAVRADLALQSPDLVVNLGDCLSGPLEVERTADLLMEANWPAVRGNHDRWLVEPEGGTVWETDARPRLSAAQRDWLAALPATRVEAGAFLCHATPGSDLIYWLHHVTPEGHVAPSPLERISRFADGITERLILCGHTHLARSVRLPDGRLVVNPGSVGCPGYEDDAPVPHRVESGTPAACYAILDSKGGDWRVTFRQIPYDHDRAARLAGRYGRPDWESVLATGWLPAQKGQGAL”, the protein production was “failed”.

In the case of “MHNFSFDVDESYAKKNNEILRDAKRLQISALCLGLILGGGAVAVYLFSNGAVWMWMIAIVMVFLALLSFIMIPVIPRQMGNAQTLYDDYELAPAIIAEVNPRDVVLLALVNRNVNPEAKPEWALATRTIVRVGAHERRLGERIPSVAITGRRTVKDQDHWDEISPMPITWGTTDKDIIREAEKTIPHELWAKLEKNRGKLEDVKKTPNNLFKL”, the protein production is reported as “failed”.

In the case of “MKKFYFLILGIVLCGMVAQAQNSYEGHIGFGQHHVVRKGGELNVEVSLDLGAVKLAAQQMIVLTPVLRSTEGEEQQQLAPVVIAGPRRYRVLKRSLAFGTDNFEMSPMLVEKRKSGTPQTVNLHFGLPYHEWMRRAELILREEVTGCADCPVSQGDHTVITSVFDEQFTPRYELSYVTPPVEPLKQRSETHTAYLNFEVDKYVLLRNYKNNANVLADVDRIVNEIQNDSNLTVTEFRVTGYASPEGNYSRNMKLSENRALAFVGYLQNHGGVDESLLTVDWKGEDWSGLRREVAASSLIDKGAILAVIDGHTDFATRKNRLQALNGGTTYRMLLRDYYPPLRRNEYTISYVARAFNVDEAKQLIKTKPQYLSLNEMFLVANTYPKDSGEFKEVFDIAARIYPDDPVARLNTAALELENGAIDAAIVRLQKSDMPEAWNNLGIAYILKQDYKKGGEYLEKAIDAGIQAAAYNMGQLAAWLKTQE”, the protein production is reported as “failed”.

With “PDADPVEIENRIIELCHQFPHGITDQVIQNEMPHIEAQQRAVAINRLLSMGQLDLLRSNTGLLYRIKD” the protein production was “not failed”.

For “MAAGTDSTGTFATRHSANECLQLQERLWLLEQIAGSASRTALRTTVARGNECRLASCIDLNPEGRPILPSCSALGRAGAAARCCAGRRGRSRARARPAGQTGGGSRVAAECRHISHRGGRGIPVSGGGGAWRSGGASNGRGVFLRPAGTGGSRLATGARQANLGCGPRPACPPAMDQDYERRLLRQIIIQNENTVPCVSEMRRTLTPANSPVSSPSKHGDRFIPSRAGANWSVNFHRINENEKSPSQNRKAKDATSDNGKDGLAYSALLKNELLGAGIEKVQDPQTEDRRLQPSTPEHKGLFTYSLSSKRSSPDDGNDVSPYSLSPVSNKSQKLLRSPRKPTRKISKIPFKVLDAPELQDDFYLNLVDWSSLNVLSVGLGTCVYLWSACTSQVTRLCDLSVEGDSVTSVGWSERGNLVAVGTHKGFVQIWDAAAGKKLSVLEGHTARVGALAWNADQLSSGSRDRMILQRDIRTPALQSERRLQGHRQEVCGLKWSTDHQLLASGGNDNKLLVWNHSSLSPVQQYTEHLAAVKAIAWSPHQHGLLASGGGTADRCIRFWNTLTGQPLQCIDTGSQVCNLAWSKHANELVSTHGYSQNQILVWKYPSLTQVAKLTGHSYRVLYLAMSPDGEAIVTGAGDETLRFWNVFSKTRSTKESVSVLNLFTRIR”, the protein production was “failed”.

With “MKMSELEKMLKGEHFDGASAEIEALRSQAGRLKLEINQSLDEAERYALQRELFGHLGHKSCVQPPFHCEFGKTIRIGDHTFINMNVVMLDGAPITIGDHVLIGPSTQFYTASHSLDYRRRQAWETICKPIVIEDDVWIGGNVVINQGVTIGARSVVAANSVVNQDVPPDTLVGGTPARILRSLKDPAESMAE” the protein production was “not failed”.

For “MNVDILKQRAKAFDYVFDAIVVTDLQGFIIDWNKGSETLYGYSKEQAIGQPVNMLHVPGDTEHITSEVISAVENQGKWTGEIRMLHKDGHIGWIESMCVPIYGENYQMVGALGINRDITLEHHHHHH”, the protein production was “not failed”.

For “MSTQFKLPLASPLTHGREDFAVSPSNGEAVARLDAWPDWAEGRLVLVGPAGCGKSHLARAWAAAAGAVVVEAANPDAASVDLSALRGRAVLVEDADRRAQGAAVSDEALFHILNMAGVDGGTVLLTGRTAPLTWSAEVADLRSRLNALSVAEIAEPDDAVLEAVLRRAFAAAWWKPEPDLYPYLLARLPRSAAEAQAAAALLAEAAADGRRELTKALAREVLEGFEGDEGLEHHHHHH”, the protein production was “failed”.

With “MGHHHHHHSHDDLEVGSIYRGKITRVEKYGVFVSLNSHVWGLMRGLFPDYKVGDELFVRVSQVKPYKGEVDMIPASIKGP” the protein production was “not failed”.

With “LVPLESDLSRAADLLNAGRKVAILAGRGALEAKEALRETAELLGAPVAKALLGKAVLPDDDPLTTGGIGILGTAPSQEIMQQCDTLLIIGSTFPYIEYYPRPNTAAGIQIDHDPQRIGLRYPVEVGLVGEAGETLRMLNKRLKRKQDRSFLERAQEQTRNWRRELRAMEGDRS” the protein production was “failed”.

In the case of “MDLPITLSKETPFEGEEITVSARVTNRGAAEAHNVPVAVYLGNPAQGGVEIGRDTISRIPVGGTGLARVQWKATRKLAGRAANPGVPVYAVVDPDNRVAESDKANLEHHHHHH”, the protein production is reported as “not failed”.

For “MKCNDKLAPFEVFDHVVNKKLSFRHVTMDDVDMLHSWMHEEHVIPYWKLNIPLVDYKKHLQTFLNDDHQTLMVGAINGVPMSYWESYWVKEDIIANYYPFEEHDQGIHLLIGPQEYLGQGLIYPLLLAIMQQKFQEPDTNTIVAEPDRRNKKMIHVFKKCGFQPVKEVELPDKIGLLMKCEQNVFEKRWSDWKMNKF”, the protein production was “not failed”.

For “MKELIKVIAFDADDTLWSNEPFFQEVEKQYTDLLKPYGTSKEISAALFQTEMNNLQILGYGAKAFTISMVETALQISNGKIAADIIRQIVDLGKSLLKMPIELLPGVKETLKTLKETGKYKLVVATKGDLLDQENKLERSGLSPYFDHIEVMSDKTEKEYLRLLSILQIAPSELLMVGNSFKSDIQPVLSLGGYGVHIPFEVMWKHEVTETFAHERLKQVKRLDDLLSLLG”, the protein production was “not failed”.

With “MFRPQDDFTYLMPVHFGGGKFDPETLVTQKATALSLSFETERDLLENYIPEGFELLAPEVQVAFNKFTEINWLHGGQYNLINVAAPVRFHGKKDELDGAYTLVVWENKTAPILGGREQTGIPKIYADIEDLHIVRPHFATTVSYEGNTFLNMDFEATGSITGRDLDALKSQFLTMNTLGWRYIPKVGAPGAELSQFVLYPQGMEVETAEVGKGSLKWTELTPMQSPAQYYIVNSLASLPIKRVTQAVLVEGRAILRAMGARVIE” the protein production was “not failed”.

In the case of “MHRLYRFCLFGMALLSSIAASAAPTDQELIAALYAKVQARQDWQAQARQCPGDNMPARAAIRATQANRCETPEQLGACLQRCEAGDGNDCYWLATTLQQAKGPAEGYEPLYQRACSLGLVSGCTNRAAGMLTADADSQGTRHCAVQTFNKACELDDPWACTMYGFHLSRGIGVAPDADLALKVLDKSCKHGPADPACSGARQLQEDIRNALEAAKR”, the protein production is reported as “failed”.

For “MQVEREENRKEVYEMKKETTGSKKVENGMEQEILNGQQPHWEKVFSNTCSRFGDEPSYPARKAAAIFEKEGKKKILELGGGQGRDTCFFASRGFSVHSLDYTESGTKAMKEKAEESGFGKYVTALRHDARNPLPFEAETFDACYSHMLYCMALTTDELEFLCKEIKRVLKPGGINIYTARHTGDAHYGTGTHRGEDMYEIAGGFIVHFFSREKVENLAKEYGSFELEEFEEGELPRKLYMVTMRK”, the protein production was “failed”.

In the case of “MEIRTFLERALKEDLGHGDLFERVLEKDFKATAFVRAKQEGVFSGEKYALELLEMTGIECVQTIKDKERFKPKDALMEIRGDFSMLLKVERTLLNLLQHSSGIATLTSRFVEALNSHKVRLLDTRKTRPLLRIFEKYSVLNGGASNHRLGLDDALMLKDTHLRHVKDLKSFLTHARKNLPFTAKIEIECESFEEAKNAMNAGADIVMCDNLSVLETKEIAAYRDAHYPFVLLEASGNISLESINAYAKSGVDAISVGALIHQATFIDMHMKMA”, the protein production is reported as “failed”.

For “MGGGNAQKSAMARAKNLEKAKAAGKGSQLEANKKAMSIQCKVCMQTFICTTSEVKCREHAEAKHPKADVVACFPHLKK”, the protein production was “not failed”.

In the case of “LFQIVEQSFGRPLSPYEIETLNQWIDVDHHDLSVIQAALDEALSQNKLSFKYIDRILLNWKKNNVKTVDDSKK”, the protein production is reported as “not failed”.

For “MNPFQNSFGGHIPQDVAGKQGENVIFIVYNLTDSPDTVDKVKDVCANFSAMIRSMRNRFPDMQFSCTMGFGADAWTRLFPDKGKPKELSTFSEIKGEKYTAVSTPGDLLFHIRAKQMGLCFEFASILDEKLKGAVVSVDETHGFRYMDGKAIIGFVDGTENPAVDENPYHFAVIGEEDADFAGGSYVFVQKYIHDMVAWNALPVEQQEKVIGRHKFNDVELSDEEKPGNAHNAVTNIGDDLKIVRANMPFANTSKGEYGTYFIGYASTFSTTRRMLENMFIGSPAGNTDRLLDFSTAITGTLFFVPSYDLLGELGE”, the protein production was “not failed”.

For “MQPFRVTLVEDEPSHATLIQYHLNQLGAEVTVHPSGSAFFQHRSQLSTCDLLIVSDQLVDLSIFSLLDIVKEQTKQPSVLILTTGRHELIESSEHNLSYLQKPFAISELRAAIDYHKPSMGVTMNV”, the protein production was “not failed”.

In the case of “MTFNALRPVASKVIDPLADFFIRYEVSPDTVSIVSLICAFFAGLSFYYSPAYQELALLAGILVVFNSLFDALDGVIARKSNRATPRGDFLDHVIDRYSDVFIICSIFFAGYVSWQIGVAAIVGVLLTSYLGTQAQALNLGRYYGGIMGRADRLVVIILAAFANSVYPASIAGFPILGWAVILIAVTSHITAIQRIMYIWRRLD”, the protein production is reported as “failed”.

For “MLGFKDIPLTKKVIHIINDIERPFMIRWSNSHDVQQIHDWLQEEEALEVHGNFLCNWNLTRQCHEEGRLLVLIDEIKGIPVAYQWGQLLSSGILQVRNGWRGNGLGRLVVEHCVELALQQDEMVLQVECKPSSSIPFWEAMGFTIVEGEFGKNAKGFRVLSKNLALPPGGRPILATISSFPEERNWQDNVPAIASYHLNAIVADDGKVYLAERASFPKCFRRMSRDPVIEIIVEGKLVYRDKAKYQGAQDHGVKWCRNGFYIDVVTI”, the protein production was “failed”.

For “MSRRGLEREGGKPVSSDAKGLKRVDVRLKWDPSPWDRPPHHLDIIATTYAADAPHGRPVYVVQFDKRSPDGTINMSRHSRTGQGFGFVEEMTFELDRLSPSIARVIVGVAIHQDNGHKTFDDVSNTGVVVAEGYRELLTDGFERVAGATAATVAEFTRNASGAWEFREAVRGFDSDPVLFATEMGSAPRP”, the protein production was “not failed”.

In the case of “MTAYWIAHVTIHDMQQYQEYMKLAPAAFQKYGAKFLARGGESVCVEGQAYQRHVIIEFPDLATAQQCYDSEEYKQARLAREGCADVMISFVEG”, the protein production is reported as “failed”.

In the case of “MIKPSNYQPPYTITPAIVNLVAEIGEIIGRYTVLAEQNLTPRLRRENRIRTIQASLAIENNTLTLEQVTAVIDGKRVLGHPREIQEVRNAFATYEAMEDWDASVEGDLLAAHELLMRGLVDETGRYRSGGVGIFRGEQLVHMAPPADRVPKLMADLLDWLENTNEHPLVASCIFHYEFEFIHPFADGNGRMGRLWQTLILRNWKPLLAYLPVETVIRDRQEDYYRVLAVADSQADATPFVEFMLGALRDAVREAVSTDHVGDQVTDQVAALIRAIGGGELSSNDLMQALGLSHRPTFRNNYLNPAMEDEWIERTQPDSPRSPTQRYRLTGKGQRWLQHHADE”, the protein production is reported as “not failed”.

In the case of “MLSIKANHFMPIVRLKENEPFEAALRRFKRTIEKTGLLTELRSREFYEKPTAERKRKHAAAVKRHYKRIRSQQLPPRLYLEHHHHHH”, the protein production is reported as “failed”.
